# Reference: US20240109974A1 (SHANDONG SIMCERE BIOPHARMACEUTICAL, published 2024)
# T1: Human TNFR2-His (Sino 10417-H08H) (human, UniProt P20333 23-257)
# T1 construct: Bought protein; also called recombinant human TNFR2 protein; not shown: His tag
# T1 sequence (looked up): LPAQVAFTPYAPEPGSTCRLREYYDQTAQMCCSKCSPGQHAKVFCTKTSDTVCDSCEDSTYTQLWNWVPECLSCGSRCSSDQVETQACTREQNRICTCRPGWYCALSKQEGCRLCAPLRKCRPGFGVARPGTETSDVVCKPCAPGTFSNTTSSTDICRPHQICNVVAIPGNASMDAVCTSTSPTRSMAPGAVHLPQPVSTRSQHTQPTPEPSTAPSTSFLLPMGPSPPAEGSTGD
# T2: human TNFR2 on the surface of CHO-TNFR2 cells (human, UniProt P20333 23-461)
# T2 construct: whole, on cells
# T2 sequence (looked up): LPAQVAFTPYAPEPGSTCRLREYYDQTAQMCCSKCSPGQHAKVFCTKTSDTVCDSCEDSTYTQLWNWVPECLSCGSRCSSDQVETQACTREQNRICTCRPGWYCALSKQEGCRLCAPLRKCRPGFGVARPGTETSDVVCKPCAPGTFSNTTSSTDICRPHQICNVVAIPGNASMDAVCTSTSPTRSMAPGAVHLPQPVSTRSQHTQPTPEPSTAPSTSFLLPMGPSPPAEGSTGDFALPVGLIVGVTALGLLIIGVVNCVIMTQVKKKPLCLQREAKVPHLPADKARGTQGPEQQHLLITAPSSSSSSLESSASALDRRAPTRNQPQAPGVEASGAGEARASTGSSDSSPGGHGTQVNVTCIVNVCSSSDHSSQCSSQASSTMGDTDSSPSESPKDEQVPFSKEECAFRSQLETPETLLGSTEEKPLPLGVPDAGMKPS
# T3: Cynomolgus TNFR2-His (Sino 90102-C08H) (cynomolgus monkey, UniProt A0A2K5VET2 132-366)
# T3 construct: Bought protein; also called cynomolgus monkey TNFR2; recombinant cynomolgus monkey TNFR2 protein; not shown: His tag
# T3 sequence: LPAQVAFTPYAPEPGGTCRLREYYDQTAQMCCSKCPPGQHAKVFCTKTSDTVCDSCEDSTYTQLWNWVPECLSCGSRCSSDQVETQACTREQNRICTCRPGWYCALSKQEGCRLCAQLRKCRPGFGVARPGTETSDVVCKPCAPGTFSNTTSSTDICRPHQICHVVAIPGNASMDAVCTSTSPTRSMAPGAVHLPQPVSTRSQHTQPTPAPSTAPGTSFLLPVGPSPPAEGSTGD
# Assays:
# [1] = target: T1, Human TNFR2-His (Sino 10417-H08H); experiment: ELISA, human TNFR2-His coated
# Method: (§1) The test humanized antibody against TNFR2 (as described in Example 1, the antibody was comprised of variable regions linked to IgG-Fc; the WT chimeric antibody also adopted the IgG-Fc structure) was subjected to 3.33-fold gradient dilution, loaded with 100 μl/well, and incubated with shaking at room temperature for 1.5 hours. The plate was washed, and then a working solution of murine anti-human IgG Fc-HRP (diluted at 1:10000) was added, loaded with 100 μl/well, and incubated with shaking at room temperature for 1.0 hour. The plate was washed again, and then the substrate TMB of HRP was added to develop colour. A stop solution was added to stop the reaction, and then a microplate reader (MD 13) was used to read the absorbance value. The binding curve of an antibody was drawn with antibody concentration as the abscissa and corresponding OD value as the ordinate, and fitted with four parameters (GraphPad Prism9) to calculate the EC50 value. The smaller the EC50 value, the stronger the binding ability of an antibody to human/cynomolgus monkey TNFR2. The binding effect of a humanized antibody was normalized to its corresponding human-murine chimeric antibody WT (see SEQ ID NOs: 38-43 for the sequence). The higher the percentage value, the better the binding effect of the humanized antibody. The results of binding of an anti-TNFR2 antibody to a human TNFR2 protein are shown in FIG. 1 and Table 4, and the results of binding of an anti-TNFR2 antibody to cynomolgus monkey TNFR2 are shown in FIG. 2 and Table 4.
# [2] = target: T2, human TNFR2 on the surface of CHO-TNFR2 …; experiment: competition flow cytometry on CHO-TNFR2 cells, competitor human TNFα-biotin
# Method: CHO stable cells highly expressing human TNFR2 were used for the experiment (the same as CHO-TNFR2 in Example 4). The CHO-TNFR2 cells were digested, washed twice with DPBS, then stained with Live/Dead (L/D) (20 minutes at room temperature), and plated at a density of 1×10⁵ cells/50 μl/well. A test anti-TNFR2 antibody was diluted to 6 μg/ml with a staining buffer as the starting concentration: the antibody was subjected to 3.33-fold gradient dilution, with a total of 7 concentration points. The diluted antibody was added to the plated cells at 50 μl/well, and the mixture was mixed well by gentle pipetting, and incubated at 4° C. for 30 minutes. Then the diluted 100 ng/ml of human TNFα-biotin was added at 100 μl/well, and the mixture was mixed well by gentle pipetting, and then incubated at 4° C. for 30 minutes. The mixture was washed twice with a staining buffer, and then 0.12 μg/ml PE-streptavidin (BioLegend, Cat #405204) was added at 100 μl/well; the resulting mixture was incubated at 4° C. for 30 minutes. The mixture was washed twice with a staining buffer, and then 150 μl of staining buffer was added to resuspend the cells; signals were detected by a flow cytometer (Thermo Attune NxT). The inhibitory curve of an antibody was drawn with antibody concentration as the abscissa and corresponding MFI value as the ordinate, and fitted with four parameters (GraphPad Prism9) to calculate the IC50 value. The smaller the IC50 value, the stronger the ability of an antibody to inhibit the binding of human TNFα to human TNFR2. The blocking effect of a humanized antibody was normalized to its corresponding human-murine chimeric WT antibody. The higher the percentage value, the better the inhibitory effect of the humanized antibody.
# [3] = target: T3, Cynomolgus TNFR2-His (Sino 90102-C08H); experiment: ELISA, cynomolgus TNFR2-His coated
# Method: as §1
EC50 [1] [µg/mL],IC50 [2] [µg/mL],EC50 [3] [ng/mL],Binder
0.0096,0.065,8.39,"224-Hu7 (antibody, V domains shown, Humanized form of #224; also called VH9 + VL10) VH: QVQLVQSGSELKKPGASVKVSCKASGFNNKDIYMHWVRQAPGQGLEWMGRIDPATGNTKHDPKFQDKAVLSSDTSVSTAYLQISSLKAEDTAVYYCARSPYGDFGAMDYWGQGTLVTVSS VL: DIQMTQSPSSLSASVGDRVTITCTASSSVSSNYLHWYQQKPGKAPKLLIYSTSNLPSGVPSRFSGSGSGTDFTLTISSLQPEDFATYYCHQYHRSPWTFGQGTKVEIK"
0.0116,0.062,9.69,"224-Hu5 (antibody, V domains shown, Humanized form of #224; also called VH9 + VL9) VH: QVQLVQSGSELKKPGASVKVSCKASGFNNKDIYMHWVRQAPGQGLEWMGRIDPATGNTKHDPKFQDKAVLSSDTSVSTAYLQISSLKAEDTAVYYCARSPYGDFGAMDYWGQGTLVTVSS VL: DIQMTQSPSSLSASVGDRVTITCTASSSVSSNYLHWYQQKPGKAPKLLIYSTSNLPSGVPSRFSGSGSGTDYSLTISSLQPEDFATYYCHQYHRSPWTFGQGTKVEIK"
0.0122,0.044,9.69,"224-Hu3 (antibody, V domains shown, Humanized form of #224; also called VH9 + VL8) VH: QVQLVQSGSELKKPGASVKVSCKASGFNNKDIYMHWVRQAPGQGLEWMGRIDPATGNTKHDPKFQDKAVLSSDTSVSTAYLQISSLKAEDTAVYYCARSPYGDFGAMDYWGQGTLVTVSS VL: DIQMTQSPSSLSASVGDRVTITCTASSSVSSNYLHWYQQKPGKAPKLLIYSTSNLPSGVPSRFSGSGSGTDFTLTISSLQAEDAATYYCHQYHRSPWTFGQGTKVEIK"
0.0107,0.058,9.56,"224-Hu4 (antibody, V domains shown, Humanized form of #224; also called VH9 + VL6) VH: QVQLVQSGSELKKPGASVKVSCKASGFNNKDIYMHWVRQAPGQGLEWMGRIDPATGNTKHDPKFQDKAVLSSDTSVSTAYLQISSLKAEDTAVYYCARSPYGDFGAMDYWGQGTLVTVSS VL: DIQMTQSPSSLSASVGDRVTITCTASSSVSSNYLHWYQQKPGKAPKLWIYSTSNLPSGVPSRFSGSGSGTDFTLTISSLQPEDFATYYCHQYHRSPWTFGQGTKVEIK"
0.0108,0.036,9.62,"224-Hu2 (antibody, V domains shown, Humanized form of #224; also called VH9 + VL7) VH: QVQLVQSGSELKKPGASVKVSCKASGFNNKDIYMHWVRQAPGQGLEWMGRIDPATGNTKHDPKFQDKAVLSSDTSVSTAYLQISSLKAEDTAVYYCARSPYGDFGAMDYWGQGTLVTVSS VL: DIQMTQSPSSLSASVGDRVTITCTASSSVSSNYLHWYQQKPGSSPKLWIYSTSNLPSGVPSRFSGSGSGTDFTLTISSLQPEDFATYYCHQYHRSPWTFGQGTKVEIK"
